Test results from US20230158141A1 (YAFEI SHANGHAI BIOLOG MEDICINE SCIENCE AND TECHNOLOGY, published 2023).
Read-outs that look alike come from different tables or passages of the source.

Experiments:
PD-1 [1] = biological target: T1, PD-1 (UniProt Q15116 25-167, limits assumed); assay: ELISA, conjugate vs WT antibody
PD-1 [2] = biological target: T1, PD-1; assay: ELISA, OD mutant/OD WT; B=70-90%
CTLA-4 [3] = biological target: T2, CTLA-4 (UniProt P16410 36-162, limits assumed); assay: ELISA; S47 on the Cys
T2 construct: also called CTLA-4 protein

CTLA-4 [4] = biological target: T2, CTLA-4; assay: ELISA; R4-1 on the Cys
CTLA-4 [5] = biological target: T2, CTLA-4; assay: ELISA; R4-1 on the Cys; remark: listed apart in the source

T1 sequence (Q15116 25-167 limits assumed): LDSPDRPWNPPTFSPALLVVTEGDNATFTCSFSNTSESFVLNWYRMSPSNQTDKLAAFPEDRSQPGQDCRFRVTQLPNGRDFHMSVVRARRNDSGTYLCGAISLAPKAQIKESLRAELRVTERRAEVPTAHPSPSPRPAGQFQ
T2 sequence (P16410 36-162 limits assumed): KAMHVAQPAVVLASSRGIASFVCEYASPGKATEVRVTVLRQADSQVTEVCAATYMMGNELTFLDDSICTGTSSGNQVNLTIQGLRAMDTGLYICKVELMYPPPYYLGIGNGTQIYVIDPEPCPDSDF

Row | Binder | binding activity (% of WT) (PD-1 [1]) [%] | binding activity (OD after mutation/OD wild type) (PD-1 [2]) [%] | Activity after S47 (40 kD) blocking (CTLA-4 [3]) [%] | Binding activity (CTLA-4 [4]) [%] | Binding activity (CTLA-4 [5]) [%]
1 | anti-PD-1 antibody 2 light chain T56C-R4-5 (antibody, human IgG4 S228P, kappa, V domains shown, R4-5 on Cys 56) VH: QVQLVESGGGVVQPGRSLRLDCKASGITFSNSGMHWVRQAPGKGLEWVAVIWYDGSKRYYADSVKGRFTISRDNSKNTLFLQMNSLRAEDTAVYYCATNDDYWGQGTLVTVSS VL: EIVLTQSPATLSLSPGERATLSCRASQSVSSYLAWYQQKPGQAPRLLIYDASNRACGIPARFSGSGSGTDFTLTISSLEPEDFAVYYCQQSSNWPRTFGQGTKVEIKR | 89.4 |  |  |  | 
2 | anti-PD-1 antibody 2 light chain A34C-R4-5 (antibody, human IgG4 S228P, kappa, V domains shown, R4-5 on Cys 34) VH: QVQLVESGGGVVQPGRSLRLDCKASGITFSNSGMHWVRQAPGKGLEWVAVIWYDGSKRYYADSVKGRFTISRDNSKNTLFLQMNSLRAEDTAVYYCATNDDYWGQGTLVTVSS VL: EIVLTQSPATLSLSPGERATLSCRASQSVSSYLCWYQQKPGQAPRLLIYDASNRATGIPARFSGSGSGTDFTLTISSLEPEDFAVYYCQQSSNWPRTFGQGTKVEIKR | 83.9 |  |  |  | 
3 | anti-PD-1 antibody 2 light chain Y32C-R4-1 (antibody, human IgG4 S228P, kappa, V domains shown, R4-1 on Cys 32) VH: QVQLVESGGGVVQPGRSLRLDCKASGITFSNSGMHWVRQAPGKGLEWVAVIWYDGSKRYYADSVKGRFTISRDNSKNTLFLQMNSLRAEDTAVYYCATNDDYWGQGTLVTVSS VL: EIVLTQSPATLSLSPGERATLSCRASQSVSSCLAWYQQKPGQAPRLLIYDASNRATGIPARFSGSGSGTDFTLTISSLEPEDFAVYYCQQSSNWPRTFGQGTKVEIKR | 25.6 |  |  |  | 
4 | anti-PD-1 antibody 2 heavy chain D101C (antibody, human IgG4 S228P, kappa, V domains shown) VH: QVQLVESGGGVVQPGRSLRLDCKASGITFSNSGMHWVRQAPGKGLEWVAVIWYDGSKRYYADSVKGRFTISRDNSKNTLFLQMNSLRAEDTAVYYCATNDCYWGQGTLVTVSS VL: EIVLTQSPATLSLSPGERATLSCRASQSVSSYLAWYQQKPGQAPRLLIYDASNRATGIPARFSGSGSGTDFTLTISSLEPEDFAVYYCQQSSNWPRTFGQGTKVEIKR |  | 70 to 90 |  |  | 
5 | anti-PD-1 antibody 2 light chain S31C-R4-1 (antibody, human IgG4 S228P, kappa, V domains shown, R4-1 on Cys 31) VH: QVQLVESGGGVVQPGRSLRLDCKASGITFSNSGMHWVRQAPGKGLEWVAVIWYDGSKRYYADSVKGRFTISRDNSKNTLFLQMNSLRAEDTAVYYCATNDDYWGQGTLVTVSS VL: EIVLTQSPATLSLSPGERATLSCRASQSVSCYLAWYQQKPGQAPRLLIYDASNRATGIPARFSGSGSGTDFTLTISSLEPEDFAVYYCQQSSNWPRTFGQGTKVEIKR | 95.7 |  |  |  | 
6 | anti-PD-1 antibody 2 heavy chain D54C (antibody, human IgG4 S228P, kappa, V domains shown) VH: QVQLVESGGGVVQPGRSLRLDCKASGITFSNSGMHWVRQAPGKGLEWVAVIWYCGSKRYYADSVKGRFTISRDNSKNTLFLQMNSLRAEDTAVYYCATNDDYWGQGTLVTVSS VL: EIVLTQSPATLSLSPGERATLSCRASQSVSSYLAWYQQKPGQAPRLLIYDASNRATGIPARFSGSGSGTDFTLTISSLEPEDFAVYYCQQSSNWPRTFGQGTKVEIKR |  | 70 to 90 |  |  | 
7 | anti-PD-1 antibody 2 heavy chain I51C (antibody, human IgG4 S228P, kappa, V domains shown) VH: QVQLVESGGGVVQPGRSLRLDCKASGITFSNSGMHWVRQAPGKGLEWVAVCWYDGSKRYYADSVKGRFTISRDNSKNTLFLQMNSLRAEDTAVYYCATNDDYWGQGTLVTVSS VL: EIVLTQSPATLSLSPGERATLSCRASQSVSSYLAWYQQKPGQAPRLLIYDASNRATGIPARFSGSGSGTDFTLTISSLEPEDFAVYYCQQSSNWPRTFGQGTKVEIKR |  | 70 to 90 |  |  | 
8 | Ipilimumab L31 Ser to Cys (antibody, V domains shown, chain 2 pos 32 (Kabat L31): introduced Cys carrying the conjugated group of the row (R4-1 or S47), written C) VH: QVQLVESGGGVVQPGRSLRLSCAASGFTFSSYTMHWVRQAPGKGLEWVTFISYDGNNKYYADSVKGRFTISRDNSKNTLYLQMNSLRAEDTAIYYCARTGWLGPFDYWGQGTLVTVSS VL: not shown |  |  | 12 | 99 | 99
9 | Ipilimumab L51 Ala to Cys (antibody, V domains shown, chain 2 pos 52 (Kabat L51): introduced Cys carrying the conjugated group of the row (R4-1 or S47), written C) VH: QVQLVESGGGVVQPGRSLRLSCAASGFTFSSYTMHWVRQAPGKGLEWVTFISYDGNNKYYADSVKGRFTISRDNSKNTLYLQMNSLRAEDTAIYYCARTGWLGPFDYWGQGTLVTVSS VL: not shown |  |  | 25 | 92 | 92
10 | Ipilimumab L50 Gly to Cys (antibody, V domains shown, chain 2 pos 51 (Kabat L50): introduced Cys carrying the conjugated group of the row (R4-1, R4-3 or S47), written C) VH: QVQLVESGGGVVQPGRSLRLSCAASGFTFSSYTMHWVRQAPGKGLEWVTFISYDGNNKYYADSVKGRFTISRDNSKNTLYLQMNSLRAEDTAIYYCARTGWLGPFDYWGQGTLVTVSS VL: not shown |  |  | 19 | 97 | 97
11 | Ipilimumab L33 Leu to Cys (antibody, V domains shown, chain 2 pos 34 (Kabat L33): introduced Cys carrying the conjugated group of the row (R4-1 or S47), written C) VH: QVQLVESGGGVVQPGRSLRLSCAASGFTFSSYTMHWVRQAPGKGLEWVTFISYDGNNKYYADSVKGRFTISRDNSKNTLYLQMNSLRAEDTAIYYCARTGWLGPFDYWGQGTLVTVSS VL: not shown |  |  | 6 | 95 | 95
12 | Ipilimumab L34 Ala to Cys (antibody, V domains shown, chain 2 pos 35 (Kabat L34): introduced Cys carrying the conjugated group of the row (R4-1 or S47), written C) VH: QVQLVESGGGVVQPGRSLRLSCAASGFTFSSYTMHWVRQAPGKGLEWVTFISYDGNNKYYADSVKGRFTISRDNSKNTLYLQMNSLRAEDTAIYYCARTGWLGPFDYWGQGTLVTVSS VL: not shown |  |  | 11 | 92 | 92
